Data as given in US20170283834A1, “Processes for Producing A Fermentation Product Using A Fermenting Organism” (Novozymes A/S, priority 2014, published 2017).

Tested on: zein
Assay: Relative activity assay of protease variants (zein micro titer plate)
Assay type: biochemical
Conditions: for Relative activity 80° C./70° C. / Relative activity 75° C./70° C.: Table 5, upper part
Method in brief: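 Yeast culture supernatants (3 days, 28 °C) incubated over 4 h or overnight on zein-agar plates (pH 4.5 acetate, 0.25 mM ZnSO4) at two temperatures. Zein turbidity read at A630; higher/lower-temperature activity ratio gives relative thermoactivity.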

Row | Molecule | Relative activity 75° C./65° C. (Table 4) [%] | Relative activity 80° C./70° C. [%] | Relative activity 75° C./70° C. [%]
1 | JTP083: protease variant of SEQ ID NO: 3: T46R/D79L/S87P/A112P/D142L (protein, listed as Thermoascus aurantiacus) MRLVASLTALVALSVPVFPAAVNVKRASSYLEITLSQVSNTLIKAVVQNTGSDELSFVHLNFFKDPAPVKKVSVYRDGSEVQFEGILSRYKSTGLSRDAFTYLAPGESVEDVFDIASTYDLTSGGPVTIRTEGVVPYATANSTDIAGYISYSSNVLTIDVDGAAAATVSKAITPLDRRTRISSCSGSRQSALTTALRNAASLANAAADAAQSGSASKFSEYFKRTSSSTRQTVAARLRAVAREASSSSSGATTYYCLDPYGYCSPNVLAYTLPSYNIIANCDIFYTYLPPLTSTCHAQDQATTALHEFTHAPGVYSPGTLDLAYGYQAAMGLSSSQAVMNADTYALYANAIYLGC | 126 | – | –
2 | JTP137: protease variant of SEQ ID NO: 3: A27K D79L S87P A112P A126V D142L (protein, listed as Thermoascus aurantiacus) MRLVASLTALVALSVPVFPAAVNVKRASSYLEITLSQVSNTLIKAVVQNTGSDELSFVHLNFFKDPAPVKKVSVYRDGSEVQFEGILSRYKSTGLSRDAFTYLAPGESVEDVFDIASTYDLTSGGPVTIRTEGVVPYATANSTDIAGYISYSSNVLTIDVDGAAAATVSKAITPLDRRTRISSCSGSRQSALTTALRNAASLANKAADAAQSGSASKFSEYFKTTSSSTRQTVAARLRAVAREASSSSSGATTYYCLDPYGYCSPNVLAYTLPSYNIIANCDIFYTYLPPLTSTCHAQDQATTVLHEFTHAPGVYSPGTLDLAYGYQAAMGLSSSQAVMNADTYALYANAIYLGC | – | 54 | –
3 | JTP135: protease variant of SEQ ID NO: 3: S38T D79L S87P A112P A126V D142L (protein, listed as Thermoascus aurantiacus) MRLVASLTALVALSVPVFPAAVNVKRASSYLEITLSQVSNTLIKAVVQNTGSDELSFVHLNFFKDPAPVKKVSVYRDGSEVQFEGILSRYKSTGLSRDAFTYLAPGESVEDVFDIASTYDLTSGGPVTIRTEGVVPYATANSTDIAGYISYSSNVLTIDVDGAAAATVSKAITPLDRRTRISSCSGSRQSALTTALRNAASLANAAADAAQSGSATKFSEYFKTTSSSTRQTVAARLRAVAREASSSSSGATTYYCLDPYGYCSPNVLAYTLPSYNIIANCDIFYTYLPPLTSTCHAQDQATTVLHEFTHAPGVYSPGTLDLAYGYQAAMGLSSSQAVMNADTYALYANAIYLGC | – | 62 | –
4 | JTP145: protease variant of SEQ ID NO: 3: S49P D79L S87P A112P D142L (protein, listed as Thermoascus aurantiacus) MRLVASLTALVALSVPVFPAAVNVKRASSYLEITLSQVSNTLIKAVVQNTGSDELSFVHLNFFKDPAPVKKVSVYRDGSEVQFEGILSRYKSTGLSRDAFTYLAPGESVEDVFDIASTYDLTSGGPVTIRTEGVVPYATANSTDIAGYISYSSNVLTIDVDGAAAATVSKAITPLDRRTRISSCSGSRQSALTTALRNAASLANAAADAAQSGSASKFSEYFKTTSPSTRQTVAARLRAVAREASSSSSGATTYYCLDPYGYCSPNVLAYTLPSYNIIANCDIFYTYLPPLTSTCHAQDQATTALHEFTHAPGVYSPGTLDLAYGYQAAMGLSSSQAVMNADTYALYANAIYLGC | – | 59 | 82
5 | JTP140: protease variant of SEQ ID NO: 3: D79L S87P N98C A112P G135C D142L (protein, listed as Thermoascus aurantiacus) MRLVASLTALVALSVPVFPAAVNVKRASSYLEITLSQVSNTLIKAVVQNTGSDELSFVHLNFFKDPAPVKKVSVYRDGSEVQFEGILSRYKSTGLSRDAFTYLAPGESVEDVFDIASTYDLTSGGPVTIRTEGVVPYATANSTDIAGYISYSSNVLTIDVDGAAAATVSKAITPLDRRTRISSCSGSRQSALTTALRNAASLANAAADAAQSGSASKFSEYFKTTSSSTRQTVAARLRAVAREASSSSSGATTYYCLDPYGYCSPNVLAYTLPSYCIIANCDIFYTYLPPLTSTCHAQDQATTALHEFTHAPCVYSPGTLDLAYGYQAAMGLSSSQAVMNADTYALYANAIYLGC | – | – | 81
6 | JTP144: protease variant of SEQ ID NO: 3: A37P D79L S87P A112P D142L (protein, listed as Thermoascus aurantiacus) MRLVASLTALVALSVPVFPAAVNVKRASSYLEITLSQVSNTLIKAVVQNTGSDELSFVHLNFFKDPAPVKKVSVYRDGSEVQFEGILSRYKSTGLSRDAFTYLAPGESVEDVFDIASTYDLTSGGPVTIRTEGVVPYATANSTDIAGYISYSSNVLTIDVDGAAAATVSKAITPLDRRTRISSCSGSRQSALTTALRNAASLANAAADAAQSGSPSKFSEYFKTTSSSTRQTVAARLRAVAREASSSSSGATTYYCLDPYGYCSPNVLAYTLPSYNIIANCDIFYTYLPPLTSTCHAQDQATTALHEFTHAPGVYSPGTLDLAYGYQAAMGLSSSQAVMNADTYALYANAIYLGC | – | – | 57
7 | JTP136: protease variant of SEQ ID NO: 3: D79L Y82F S87P A112P A126V D142L (protein, listed as Thermoascus aurantiacus) MRLVASLTALVALSVPVFPAAVNVKRASSYLEITLSQVSNTLIKAVVQNTGSDELSFVHLNFFKDPAPVKKVSVYRDGSEVQFEGILSRYKSTGLSRDAFTYLAPGESVEDVFDIASTYDLTSGGPVTIRTEGVVPYATANSTDIAGYISYSSNVLTIDVDGAAAATVSKAITPLDRRTRISSCSGSRQSALTTALRNAASLANAAADAAQSGSASKFSEYFKTTSSSTRQTVAARLRAVAREASSSSSGATTYYCLDPFGYCSPNVLAYTLPSYNIIANCDIFYTYLPPLTSTCHAQDQATTVLHEFTHAPGVYSPGTLDLAYGYQAAMGLSSSQAVMNADTYALYANAIYLGC | – | 59 | –
8 | JTP141: protease variant of SEQ ID NO: 3: D79L S87P A112P D142L T141C M161C (protein, listed as Thermoascus aurantiacus) MRLVASLTALVALSVPVFPAAVNVKRASSYLEITLSQVSNTLIKAVVQNTGSDELSFVHLNFFKDPAPVKKVSVYRDGSEVQFEGILSRYKSTGLSRDAFTYLAPGESVEDVFDIASTYDLTSGGPVTIRTEGVVPYATANSTDIAGYISYSSNVLTIDVDGAAAATVSKAITPLDRRTRISSCSGSRQSALTTALRNAASLANAAADAAQSGSASKFSEYFKTTSSSTRQTVAARLRAVAREASSSSSGATTYYCLDPYGYCSPNVLAYTLPSYNIIANCDIFYTYLPPLTSTCHAQDQATTALHEFTHAPGVYSPGCLDLAYGYQAAMGLSSSQAVCNADTYALYANAIYLGC | – | – | 68
9 | JTP143: protease variant of SEQ ID NO: 3: S36P D79L S87P A112P D142L (protein, listed as Thermoascus aurantiacus) MRLVASLTALVALSVPVFPAAVNVKRASSYLEITLSQVSNTLIKAVVQNTGSDELSFVHLNFFKDPAPVKKVSVYRDGSEVQFEGILSRYKSTGLSRDAFTYLAPGESVEDVFDIASTYDLTSGGPVTIRTEGVVPYATANSTDIAGYISYSSNVLTIDVDGAAAATVSKAITPLDRRTRISSCSGSRQSALTTALRNAASLANAAADAAQSGPASKFSEYFKTTSSSTRQTVAARLRAVAREASSSSSGATTYYCLDPYGYCSPNVLAYTLPSYNIIANCDIFYTYLPPLTSTCHAQDQATTALHEFTHAPGVYSPGTLDLAYGYQAAMGLSSSQAVMNADTYALYANAIYLGC | – | – | 69
